Measurements reported in patent US20190162720A1.

What was measured:
[1] = biological target: anti-biotin antibody (Abcam plc., ab53494, Rabbit polyclonal); experiment: SPR Biacore T200; protein A/G 100 µg/mL fed over anti-biotin antibody on the chip (Example 3)
[2] = biological target: anti-CRP antibody (R&D Systems, Inc., Human C-Reactive protein Antibody, Monoclonal Mouse IgG2B, MAB17071-500); experiment: SPR Biacore T200; anti-CRP antibody 100 µg/mL fed over protein A/G held on the first antibody (Example 7)
[3] = biological target: anti-CRP antibody (R&D Systems, Inc., Human C-Reactive protein Antibody, Monoclonal Mouse IgG2B, MAB17071-500); experiment: SPR Biacore T200; anti-CRP antibody 100 µg/mL fed over protein A/G held on anti-mPEG antibody (Example 10)
[4] = biological target: anti-BSA antibody (Bioss Inc., bs-0292R, polyclonal antibody); experiment: SPR Biacore T200; protein A/G (six domains) 100 µg/mL fed over anti-BSA antibody on the chip (Example 15)
[5] = biological target: anti-BSA antibody (Bioss Inc., bs-0292R, polyclonal antibody); experiment: SPR Biacore T200; protein A/G (six domains) 100 µg/mL fed over anti-BSA antibody on the chip (Example 17)
[6] = biological target: anti-CRP antibody (R&D Systems, Inc., Human C-Reactive protein Antibody, Monoclonal Mouse IgG2B, MAB17071-500); experiment: SPR Biacore T200; anti-CRP antibody 100 µg/mL fed over protein A/G held on anti-BSA antibody (Example 17)
[7] = biological target: anti-adiponectin antibody (R&D Systems, Inc., Human Adiponectin/Acrp30 Antibody, Monoclonal Mouse IgG2B, MAB10651); experiment: SPR Biacore T200; anti-adiponectin antibody 100 µg/mL fed over protein A/G held on the first antibody (Example 5)
[8] = biological target: anti-biotin monoclonal antibody (Abcam plc., ab36406, Mouse monoclonal); experiment: SPR Biacore T200; protein A/G (six domains) 25 µg/mL fed over anti-biotin monoclonal antibody on the chip (Example 7)
[9] = biological target: anti-CRP antibody (R&D Systems, Inc., Human C-Reactive protein Antibody, Monoclonal Mouse IgG2B, MAB17071-500); experiment: SPR Biacore T200; anti-CRP antibody 100 µg/mL fed over protein A/G held on anti-biotin antibody (Example 12)
[10] = biological target: anti-CRP antibody (R&D Systems, Inc., Human C-Reactive protein Antibody, Monoclonal Mouse IgG2B, MAB17071-500); experiment: SPR Biacore T200; anti-CRP antibody 100 µg/mL fed over protein A/G held on anti-streptavidin antibody (Example 14)
[11] = biological target: anti-biotin antibody (Abcam plc., ab53494, Rabbit polyclonal); experiment: SPR Biacore T200; protein A/G 100 µg/mL fed over anti-biotin antibody on the chip (Example 1)
[12] = biological target: anti-adiponectin antibody (R&D Systems, Inc., Human Adiponectin/Acrp30 Antibody, Monoclonal Mouse IgG2B, MAB10651); experiment: SPR Biacore T200; anti-adiponectin antibody 100 µg/mL fed over protein A/G held on the first antibody (Example 4)
[13] = biological target: anti-CRP antibody (R&D Systems, Inc., Human C-Reactive protein Antibody, Monoclonal Mouse IgG2B, MAB17071-500); experiment: SPR Biacore T200; anti-CRP antibody 100 µg/mL fed over protein A/G held on anti-BSA antibody (Example 15)
[14] = biological target: anti-mPEG monoclonal antibody (Abcam plc., ab51257, Mouse monoclonal, Anti-Polyethylene glycol antibody [PEG-B-47]); experiment: SPR Biacore T200; protein A/G (six domains) 101 µg/mL fed over anti-mPEG antibody on the mPEG chip (Example 9)
[15] = biological target: anti-adiponectin antibody (R&D Systems, Inc., Human Adiponectin/Acrp30 Antibody, Monoclonal Mouse IgG2B, MAB10651); experiment: SPR Biacore T200; anti-adiponectin antibody 100 µg/mL fed over protein A/G held on the first antibody (Example 3)
[16] = biological target: anti-biotin monoclonal antibody (Abcam plc., ab36406, Mouse monoclonal); experiment: SPR Biacore T200; protein A/G (six domains) 100 µg/mL fed over anti-biotin monoclonal antibody on the biotin-PEG chip (Example 12)
[17] = biological target: anti-adiponectin antibody (R&D Systems, Inc., Human Adiponectin/Acrp30 Antibody, Monoclonal Mouse IgG2B, MAB10651); experiment: SPR Biacore T200; anti-adiponectin antibody 100 µg/mL fed over protein A/G held on the first antibody (Example 2)
[18] = biological target: anti-biotin monoclonal antibody (Abcam plc., ab36406, Mouse monoclonal); experiment: SPR Biacore T200; protein A/G (six domains) 100 µg/mL fed over anti-biotin monoclonal antibody on the biotin-PEG chip (Example 13)
[19] = biological target: anti-adiponectin antibody (R&D Systems, Inc., Human Adiponectin/Acrp30 Antibody, Monoclonal Mouse IgG2B, MAB10651); experiment: SPR Biacore T200; anti-adiponectin antibody 100 µg/mL fed over protein A/G held on the first antibody (Example 1)
[20] = biological target: anti-biotin antibody (Abcam plc., ab53494, Rabbit polyclonal); experiment: SPR Biacore T200; protein A/G 100 µg/mL fed over anti-biotin antibody on the chip (Example 2)
[21] = biological target: anti-CRP antibody (R&D Systems, Inc., Human C-Reactive protein Antibody, Monoclonal Mouse IgG2B, MAB17071-500); experiment: SPR Biacore T200; anti-CRP antibody 100 µg/mL fed over protein A/G held on anti-mPEG antibody (Example 9)
[22] = biological target: anti-biotin antibody (Abcam plc., ab53494, Rabbit polyclonal); experiment: SPR Biacore T200; protein A/G 100 µg/mL fed over anti-biotin antibody on the chip (Example 4)
[23] = biological target: anti-biotin antibody (Abcam plc., ab53494, Rabbit polyclonal); experiment: SPR Biacore T200; protein A/G 100 µg/mL fed over anti-biotin antibody on the chip (Example 5)
[24] = biological target: anti-CRP antibody (R&D Systems, Inc., Human C-Reactive protein Antibody, Monoclonal Mouse IgG2B, MAB17071-500); experiment: SPR Biacore T200; anti-CRP antibody 100 µg/mL fed over protein A/G held on anti-BSA antibody (Example 16)
[25] = biological target: anti-streptavidin antibody (R&D Systems, Inc., Streptavidin Antibody, Recombinant Monoclonal Rabbit IgG Clone #1220C, MAB9020); experiment: SPR Biacore T200; protein A/G (six domains) 100 µg/mL fed over anti-streptavidin antibody on the chip (Example 14)
[26] = biological target: anti-mPEG monoclonal antibody (Abcam plc., ab51257, Mouse monoclonal, Anti-Polyethylene glycol antibody [PEG-B-47]); experiment: SPR Biacore T200; protein A/G (six domains) 1,000 µg/mL fed over anti-mPEG antibody on the mPEG chip (Example 10)
[27] = biological target: anti-CRP antibody (R&D Systems, Inc., Human C-Reactive protein Antibody, Monoclonal Mouse IgG2B, MAB17071-500); experiment: SPR Biacore T200; anti-CRP antibody 100 µg/mL fed over protein A/G held on anti-biotin antibody (Example 13)
[28] = biological target: anti-BSA antibody (Bioss Inc., bs-0292R, polyclonal antibody); experiment: SPR Biacore T200; protein A/G (six domains) 100 µg/mL fed over anti-BSA antibody on the chip (Example 16)

Substance: protein A/G (Pierce 21186, Recombinant Protein A/G from E. coli, six domains)
- amount of the protein A/G immobilized [1]: 890 RU
- Amount of second antibody immobilized [2]: 2300 RU
- Amount of second antibody immobilized [3]: 3450 RU
- amount of the protein A/G immobilized [4]: 602 RU
- amount of the protein A/G immobilized [5]: 507 RU
- Amount of second antibody immobilized [6]: 2680 RU
- Amount of second antibody immobilized [7]: 1560 RU
- amount of the protein A/G immobilized [8]: 622 RU
- Amount of second antibody immobilized [9]: 2330 RU
- Amount of second antibody immobilized [10]: 3400 RU
- amount of the protein A/G immobilized [11]: 558 RU
- Amount of second antibody immobilized [12]: 1620 RU
- Amount of second antibody immobilized [13]: 2800 RU
- amount of the protein A/G immobilized [14]: 637 RU
- Amount of second antibody immobilized [15]: 1610 RU
- amount of the protein A/G immobilized [16]: 603 RU
- Amount of second antibody immobilized [17]: 935 RU
- amount of the protein A/G immobilized [18]: 828 RU
- Amount of second antibody immobilized [19]: 1100 RU
- amount of the protein A/G immobilized [20]: 718 RU
- Amount of second antibody immobilized [21]: 2840 RU
- amount of the protein A/G immobilized [22]: 884 RU
- amount of the protein A/G immobilized [23]: 890 RU
- Amount of second antibody immobilized [24]: 2820 RU
- amount of the protein A/G immobilized [25]: 716 RU
- amount of the protein A/G immobilized [26]: 685 RU
- Amount of second antibody immobilized [27]: 2890 RU
- amount of protein A/G immobilized [28]: 497 RU
